For data set [1] the following is noted: related art statement; cited from earlier work.
The test system of data set [2] is SJSA-1 (p53+/+) osteosarcoma cell line. In words: Cell cycle arrest in SJSA-1 cells (EdU / Hoescht 33342 imaging). Format: cell-based. Conditions: 10 uM, 24 hours, compared to control (Mock), FIG. 7. Here is the method: In this example, it was examined if the modified three-helix bundle proteins prepared in Example 3 can induce G1 and G2/M phase cell cycle arrest in SJSA-1 (p53+/+; ATCC), which is an osteosarcoma cell line expressing wild-type p53.
In particular, SJSA1 cells were treated with the modified three-helix bundle protein M11 or M25 at the concentration of 10 uM for 24 hours, and stained with EdU (Edu staining kit, Life Technology Inc.) and Hoescht 33342 (Life Technology Inc.). Among the cells, at least 1000 cells were analyzed by imaging with incell analyzer 6000 (Ge Healthcare) and incell communicator (GE Healthcare). For comparison, the same experiment using Nutlin 3a (Sigma) at the concentration of 10 uM was performed as a positive control.
The imaging results were analyzed by measuring the intensities of EdU (S phase indicator) and Hoescht33342 (DNA content indicator) at single cell level, and determining each population by measuring intensity of Hoescht33342 (DNA content indicator) and EdU (S phase indicator) at single cell level, thereby measuring ratio of cells at each cell cycle phase. The obtained population of each cell cycle phase was shown in FIG. 6, and the S phase measured by EdU uptake amount (EdU intensity) was shown in FIG. 7. […] G2/M is considered as a course progressing to G1 phase.

Data set [3] addresses T1, full-length HDM2 (NP 002383.2) (Homo sapiens, UniProt Q00987).
T1 construct: full-length HDM2 (NP 002383.2)
The experiment in a line: ELISA binding strength to full-length HDM2. Conditions: absorbance at 450 nm, GST-fused protein 0-5.5 uM, versus GST only (negative control) and GST-p53LZ2 (positive control), FIG. 4. On the procedure: (§1) The binding strength of the modified three-helix bundle proteins prepared in Example 1 was examined by ELISA.
(§2) In particular, each of full-length HDM2 (NP 002383.2), HDM2 N-terminal domain (NTD; the region from 1st to 125th amino acids of NP 002383.2), full-length HDMX (NP_001191100.1), and HDMX NTD (the region from 1st to 132nd amino acids of NP_001191100.1) was diluted to the concentration of 20 μg/ml with coating buffer (pH 9.6; 0.05M carbonate-bicarbonate buffer, pH9.6; Sigma-Aldrich), and coated on 96 well (Nunc, Maxisorp). The well was incubated overnight at 4° C. Thereafter, bindings between other proteins were blocked with 300 ul of 3% skim milk w/PBS-T (at room temperature for 3 hours). The 96 well plate was washed with 200 uL of PBS-T and treated with GST-M11 (SEQ ID NO: 7) or GST-M25 (SEQ ID NO: 16) at a concentration of 0, 0.5, 1, 1.5, 2, 2.5, 3, 3.5, 4, 4.5, 5, or 5.5 uM (micromole). The GST protein was produced from GST cds included in pGEX-4T3 vector purchased from GE healthcare.
(§3) One hour after, the plate was washed with 300 uL of PBS-T, and treated with 100 uL of HRP conjugated-anti-GST antibody (Abcam, 1:2000). […] Thereafter, absorbance at 450 nm was measured using microwell reader (Molecular Device, 340PC384). […]
Background: An ELISA detects its analyte on a solid surface through an enzyme-linked reagent.

The target in data set [4] is T2, HDM2 N-terminal domain (NTD; the region from 1st to 125th amino acids of NP 002383.2) (Homo sapiens, UniProt Q00987).
T2 construct: the region from 1st to 125th amino acids of NP 002383.2
The experiment in a line: ELISA binding strength to HDM2 NTD. Conditions: absorbance at 450 nm, GST-fused protein 0-5.5 uM, versus GST only (negative control) and GST-p53LZ2 (positive control), FIG. 5. On the procedure:
as §1, §2, §3

Data set [5] has as its target T3, HDMX NTD (the region from 1st to 132nd amino acids of NP_001191100.1) (Homo sapiens, UniProt O15151).
T3 construct: the region from 1st to 132nd amino acids of NP_001191100.1
T3 sequence (O15151 1-132 isoform O15151-5): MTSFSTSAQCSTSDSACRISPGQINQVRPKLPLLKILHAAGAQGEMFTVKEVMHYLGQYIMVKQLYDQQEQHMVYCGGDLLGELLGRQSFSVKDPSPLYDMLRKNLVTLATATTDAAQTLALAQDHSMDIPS
In words: ELISA binding strength to HDMX NTD. Conditions: absorbance at 450 nm, GST-fused protein 0-5.5 uM, versus GST only (negative control) and GST-p53LZ2 (positive control), FIG. 3. Here is the method: as §1, §2, §3

In data set [6] the test system is SJSA-1 (p53+/+) osteosarcoma cell line. The experiment in a line: Cancer cell proliferation inhibition in SJSA-1 cells (CellTiter-Glo cell viability). Format: cell-based. Conditions: 5 days, TAT-coupled protein, FIG. 8; for cancer cell death rate: 10.00 uM. Here is the method: The effects of the modified three-helix bundle proteins prepared in Example 1 to inhibit cancer cell proliferation was examined in SJSA-1 (p53+/+; ATCC), which is an osteosarcoma cell line expressing wild-type p53.
The cells were cultured in CO2 incubator under the conditions of 37° C., and CO2 5%, for 5 days. 80 uL of CellTiter-Glo reagent (Promega) was added to each well, and luminescence was measured with EnVision Multilabel Reader (PerkinElmer), to measure cell viability. The cell viability is indicated by a relative value to that of non-treated cells (“1.0”).

T1 sequence (Q00987 1-497 isoform Q00987-11): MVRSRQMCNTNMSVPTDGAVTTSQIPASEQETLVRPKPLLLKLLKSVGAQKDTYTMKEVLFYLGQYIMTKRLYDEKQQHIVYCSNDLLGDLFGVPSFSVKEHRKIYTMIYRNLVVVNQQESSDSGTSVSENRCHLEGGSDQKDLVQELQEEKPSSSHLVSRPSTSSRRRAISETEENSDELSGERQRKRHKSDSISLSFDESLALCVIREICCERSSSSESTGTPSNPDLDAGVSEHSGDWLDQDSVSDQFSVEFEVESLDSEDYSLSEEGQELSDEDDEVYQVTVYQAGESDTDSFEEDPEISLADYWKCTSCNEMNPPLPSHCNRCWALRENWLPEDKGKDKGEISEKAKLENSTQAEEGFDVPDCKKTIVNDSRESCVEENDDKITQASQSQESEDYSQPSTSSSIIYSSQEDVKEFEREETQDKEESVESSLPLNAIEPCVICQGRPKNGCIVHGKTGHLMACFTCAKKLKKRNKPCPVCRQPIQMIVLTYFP
T2 sequence (Q00987 1-125 isoform Q00987-11): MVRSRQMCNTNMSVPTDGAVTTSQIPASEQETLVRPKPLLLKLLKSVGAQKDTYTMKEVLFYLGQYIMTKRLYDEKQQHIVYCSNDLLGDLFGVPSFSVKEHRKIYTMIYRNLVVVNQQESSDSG

Consider `COc1ccc(C2=N[C@@H](c3ccc(Cl)cc3)[C@@H](c3ccc(Cl)cc3)N2C(=O)N2CCNC(=O)C2)c(OC(C)C)c1` [Nutlin-3], for which, in data set [1], the cytotoxicity entry is “high level of cytotoxicity”.

As for `COc1ccc(C2=N[C@@H](c3ccc(Cl)cc3)[C@@H](c3ccc(Cl)cc3)N2C(=O)N2CCNC(=O)C2)c(OC(C)C)c1` [nutlin3a, Nutlin 3a, reference compound], the “level (cell number) of cells at S phase measured by EdU intensity” value (“level (cell number) of cells at S phase” for short) in data set [2] is “decrease in level (cell number) of cells at S phase compared to that of control (Mock)”.

B1: M11: modified three-helix bundle protein, a3D variant, SEQ ID NO: 7 (protein)
chain: MGSWAEFSQRLFAIYWRLLALGGSEAELAAFEKEIAAFESELQAYKGKGNPEVEALRKEAAAIRDELQAYRHN
modifications: Synthetic M11
For the molecule B1, the “binding strength to full-length HDM2” value in data set [3] was “considerably higher than that of the negative control, and similar to or higher than that of the positive control”. Also, the “level (cell number) of cells at S phase” value in data set [2] was “decrease in level (cell number) of cells at S phase compared to that of control (Mock)”. Besides, the “binding strength to HDM2 NTD” value in data set [4] was “considerably higher than that of the negative control, and similar to or higher than that of the positive control”. In addition, in data set [5], the “binding strength to HDMX NTD” value is “considerably higher than that of the negative control, and similar to or higher than that of the positive control”. Besides, in data set [6], the “cancer cell death rate” value is given as “at least 90%” and the “cancer cell proliferation inhibition effect compared with positive control” value is “equal to that of Nutlin-3”.

B2: M25: modified three-helix bundle protein, a3D variant, SEQ ID NO: 16 (protein)
chain: MGSWFEFAWRLLEIKTRLQALGGSEAELAAFEKEIAAFESELQAYKGKGNPEVEALRFEAYWIRLELQAYRHN
modifications: Synthetic M25
As to B2, in data set [3], the “binding strength to full-length HDM2” value is “considerably higher than that of the negative control, and similar to or higher than that of the positive control”. Also, the “level (cell number) of cells at S phase” value in data set [2] is reported as “decrease in level (cell number) of cells at S phase compared to that of control (Mock)”. For the same molecule, the “binding strength to HDM2 NTD” value in data set [4] was “considerably higher than that of the negative control, and similar to or higher than that of the positive control”. In addition, the “binding strength to HDMX NTD” value in data set [5] is “considerably higher than that of the negative control, and similar to or higher than that of the positive control”. Besides, in data set [6], the “cancer cell death rate” value is given as “at least 80%” and the “cancer cell proliferation inhibition effect compared with positive control” value is on record as “equal to that of Nutlin-3”.

These data come from patent US9902758B2, “Three-helix bundle protein and use thereof” (Samsung Electronics Co., Ltd., priority 2015, dated 2018).
